Consider 2 proteins from paper PMC8050300, “The role of S-nitrosylation of PFKM in regulation of glycolysis in ovarian cancer cells” (Cell Death & Disease, 2021).

For orientation: stoichiometry N means a count of units in the complex or per binding partner.

This data set concerns the molecule itself. The data set can be described thus: non-reducing SDS-PAGE with western blot; cell extracts separated by non-reducing SDS-PAGE, blot for PFKM tetramer, dimer and monomer; SKOV3 control and OE-NOS1 cells, SKOV3 and OVCAR3 cells with GSNO (1 mM, 30 min) or PBS, SKOV3-PFKM-KO cells (with or without OE-NOS1) reconstituted with Flag-PFKM-WT or C351S. In general terms: A western blot detects proteins with antibodies after separation by electrophoresis.

Where “and” joins values, the source holds several entries; their conditions need not be identical. Identical values can stand only once.

B1: Phosphofructokinase (PFKM), endogenous (enzyme, human (endogenous in SKOV3 and OVCAR3), UniProt P08237-1 1-780, looked up)
chain: MTHEEHHAAKTLGIGKAIAVLTSGGDAQGMNAAVRAVVRVGIFTGARVFFVHEGYQGLVDGGDHIKEATWESVSMMLQLGGTVIGSARCKDFREREGRLRAAYNLVKRGITNLCVIGGDGSLTGADTFRSEWSDLLSDLQKAGKITDEEATKSSYLNIVGLVGSIDNDFCGTDMTIGTDSALHRIMEIVDAITTTAQSHQRTFVLEVMGRHCGYLALVTSLSCGADWVFIPECPPDDDWEEHLCRRLSETRTRGSRLNIIIVAEGAIDKNGKPITSEDIKNLVVKRLGYDTRVTVLGHVQRGGTPSAFDRILGSRMGVEAVMALLEGTPDTPACVVSLSGNQAVRLPLMECVQVTKDVTKAMDEKKFDEALKLRGRSFMNNWEVYKLLAHVRPPVSKSGSHTVAVMNVGAPAAGMNAAVRSTVRIGLIQGNRVLVVHDGFEGLAKGQIEEAGWSYVGGWTGQGGSKLGTKRTLPKKSFEQISANITKFNIQGLVIIGGFEAYTGGLELMEGRKQFDELCIPFVVIPATVSNNVPGSDFSVGADTALNTICTTCDRIKQSAAGTKRRVFIIETMGGYCGYLATMAGLAAGADAAYIFEEPFTIRDLQANVEHLVQKMKTTVKRGLVLRNEKCNENYTTDFIFNLYSEEGKGIFDSRKNVLGHMQQGGSPTPFDRNFATKMGAKAMNWMSGKIKESYRNGRIFANTPDSGCVLGMRKRALVFQPVAELKDQTDFEHRIPKEQWWLKLRPILKILAKYEIDLDTSDHAHLEHITRKRSGEAAV
notes: PFKM, muscle isoform of phosphofructokinase 1, human, endogenous in ovarian cancer cells; also called PFK1 (M isoform); source: endogenous, SKOV3 (control, OE-NOS1) and OVCAR3 cell lysate
Take B1: the “stoichiometry N” value was 4 and 2.

B2: Flag-tagged WT human PFK1 (M isoform) (enzyme, UniProt P08237-1 1-780, looked up)
chain: B1 chain
notes: human PFK1 (M isoform, PFKM) cDNA (ATCC, NCBI NP_000280.1) in the expression vector PCDNA3.1; the vector section is headed 'for ovarian cancer cells expression'; also called Flag-PFKM; Flag-PFKM-WT; source: SKOV3-PFKM-KO cells, transfected, in lysate
As to B2, the “stoichiometry N” value was 4 and 2.
